Results as given in the array DNA melting data of Ke et al..

Test: melting temperature; melt of duplexes
Details: sodium 0.0675 M; strand 1 µM

Substance	Tm [°C]
CGACGTGCATTATGTGCTG+CAGCACATGGCGCACGTCG ((((((((...((((((((+))))))))...))))))))	48.4
CGACGTGCGTCATGTGCTG+CAGCACATTCCGCACGTCG (((((((((..((((((((+))))))))..)))))))))	52.8
CGACGTGCAGGATGTGCTG+CAGCACATAAGGCACGTCG ((((((((...((((((((+))))))))...))))))))	50.8
CGACGTGCAGAATGTGCTG+CAGCACATCGTGCACGTCG (((((((((..((((((((+))))))))..)))))))))	49
CGACGTGCCGTATGTGCTG+CAGCACATTGGGCACGTCG (((((((((..((((((((+))))))))..)))))))))	54.7
CGACGTGCCAGATGTGCTG+CAGCACATCTTGCACGTCG ((((((((.((((((((((+)))))))))).))))))))	57
CGACGTGCATCATGTGCTG+CAGCACATATGGCACGTCG ((((((((...((((((((+))))))))...))))))))	48.8
CGACGTGCGACATGTGCTG+CAGCACATACGGCACGTCG ((((((((...((((((((+))))))))...))))))))	48.8
CGACGTGCGCAATGTGCTG+CAGCACATCAAGCACGTCG ((((((((...((((((((+))))))))...))))))))	53.1
CGACGTGCAGTATGTGCTG+CAGCACATGATGCACGTCG (((((((((..((((((((+))))))))..)))))))))	55
CGACGTGCTAGATGTGCTG+CAGCACATCAGGCACGTCG ((((((((..(((((((((+)))))))))..))))))))	56.2
CGACGTGCTGTATGTGCTG+CAGCACATGTCGCACGTCG ((((((((...((((((((+))))))))...))))))))	49.3
CGACGTGCTCTATGTGCTG+CAGCACATTGGGCACGTCG ((((((((.(.((((((((+)))))))).).))))))))	53.4
CGACGTGCGATATGTGCTG+CAGCACATATGGCACGTCG ((((((((.((((((((((+)))))))))).))))))))	56.5
CGACGTGCAGTATGTGCTG+CAGCACATCAAGCACGTCG ((((((((...((((((((+))))))))...))))))))	49.6
CGACGTGCCCTATGTGCTG+CAGCACATGCAGCACGTCG ((((((((...((((((((+))))))))...))))))))	49.7
CGACGTGCCGCATGTGCTG+CAGCACATCATGCACGTCG ((((((((...((((((((+))))))))...))))))))	48.6
CGACGTGCTGGATGTGCTG+CAGCACATTATGCACGTCG ((((((((...((((((((+))))))))...))))))))	52
CGACGTGCAATATGTGCTG+CAGCACATCTAGCACGTCG ((((((((.(.((((((((+)))))))).).))))))))	49.2
CGACGTGCTTCATGTGCTG+CAGCACATAGCGCACGTCG ((((((((...((((((((+))))))))...))))))))	47.4
CGACGTGCTTAATGTGCTG+CAGCACATAGGGCACGTCG ((((((((...((((((((+))))))))...))))))))	50
CGACGTGCGCGATGTGCTG+CAGCACATGGAGCACGTCG ((((((((.(.((((((((+)))))))).).))))))))	56
CGACGTGCCTCATGTGCTG+CAGCACATATGGCACGTCG (((((((((..((((((((+))))))))..)))))))))	54
CGACGTGCGCTATGTGCTG+CAGCACATCTAGCACGTCG ((((((((...((((((((+))))))))...))))))))	50.4

Substance	Tm [°C]
CGACGTGCCGGATGTGCTG+CAGCACATTCGGCACGTCG ((((((((((.((((((((+)))))))).))))))))))	62.4
CGACGTGCACTATGTGCTG+CAGCACATGTGGCACGTCG ((((((((...((((((((+))))))))...))))))))	48
CGACGTGCCAAATGTGCTG+CAGCACATGACGCACGTCG ((((((((...((((((((+))))))))...))))))))	47.5
CGACGTGCAGAATGTGCTG+CAGCACATCTCGCACGTCG ((((((((...((((((((+))))))))...))))))))	51.6
CGACGTGCAATATGTGCTG+CAGCACATCCTGCACGTCG (((((((((..((((((((+))))))))..)))))))))	49.6
CGACGTGCCTAATGTGCTG+CAGCACATGCTGCACGTCG ((((((((...((((((((+))))))))...))))))))	46.9
CGACGTGCTATATGTGCTG+CAGCACATTTCGCACGTCG ((((((((.(.((((((((+)))))))).).))))))))	49
CGACGTGCAAAATGTGCTG+CAGCACATGAGGCACGTCG ((((((((...((((((((+))))))))...))))))))	52.5
CGACGTGCGTCATGTGCTG+CAGCACATCAAGCACGTCG ((((((((.(.((((((((+)))))))).).))))))))	52.6
CGACGTGCGGGATGTGCTG+CAGCACATTAGGCACGTCG ((((((((...((((((((+))))))))...))))))))	51.9
CGACGTGCCCAATGTGCTG+CAGCACATCGGGCACGTCG ((((((((((.((((((((+)))))))).))))))))))	58.9
CGACGTGCCCAATGTGCTG+CAGCACATTATGCACGTCG ((((((((..(((((((((+)))))))))..))))))))	50.1
CGACGTGCTTTATGTGCTG+CAGCACATGAAGCACGTCG ((((((((((.((((((((+)))))))).))))))))))	57.3
CGACGTGCTACATGTGCTG+CAGCACATGTCGCACGTCG ((((((((.((((((((((+)))))))))).))))))))	57.2
CGACGTGCCCCATGTGCTG+CAGCACATGCAGCACGTCG ((((((((..(((((((((+)))))))))..))))))))	51.9
CGACGTGCATTATGTGCTG+CAGCACATCAGGCACGTCG ((((((((.(.((((((((+)))))))).).))))))))	49.9
CGACGTGCAGCATGTGCTG+CAGCACATTGGGCACGTCG ((((((((...((((((((+))))))))...))))))))	47.2
CGACGTGCAACATGTGCTG+CAGCACATGCAGCACGTCG ((((((((..(((((((((+)))))))))..))))))))	53.9
CGACGTGCTTGATGTGCTG+CAGCACATTAAGCACGTCG ((((((((((.((((((((+)))))))).))))))))))	57.2
CGACGTGCCCAATGTGCTG+CAGCACATCGAGCACGTCG ((((((((.(.((((((((+)))))))).).))))))))	50.3
CGACGTGCCTCATGTGCTG+CAGCACATCTGGCACGTCG (((((((((..((((((((+))))))))..)))))))))	52.7
CGACGTGCCTCATGTGCTG+CAGCACATGCCGCACGTCG ((((((((..(((((((((+)))))))))..))))))))	51.4
CGACGTGCTCAATGTGCTG+CAGCACATCTGGCACGTCG ((((((((...((((((((+))))))))...))))))))	50.3
CGACGTGCGTCATGTGCTG+CAGCACATATGGCACGTCG ((((((((...((((((((+))))))))...))))))))	49.8

Substance	Tm [°C]
CGACGTGCTGCATGTGCTG+CAGCACATCCGGCACGTCG ((((((((.(.((((((((+)))))))).).))))))))	51.9
CGACGTGCTGAATGTGCTG+CAGCACATTGAGCACGTCG (((((((((.(((((((((+))))))))).)))))))))	56.6
CGACGTGCGGAATGTGCTG+CAGCACATTTAGCACGTCG ((((((((..(((((((((+)))))))))..))))))))	55.1
CGACGTGCTTTATGTGCTG+CAGCACATCCGGCACGTCG ((((((((...((((((((+))))))))...))))))))	48.2
CGACGTGCTCCATGTGCTG+CAGCACATAATGCACGTCG ((((((((...((((((((+))))))))...))))))))	48.4
CGACGTGCTATATGTGCTG+CAGCACATGCTGCACGTCG ((((((((...((((((((+))))))))...))))))))	48.1
CGACGTGCCGAATGTGCTG+CAGCACATGCAGCACGTCG ((((((((.(.((((((((+)))))))).).))))))))	52.6
CGACGTGCGTAATGTGCTG+CAGCACATACAGCACGTCG ((((((((...((((((((+))))))))...))))))))	54
CGACGTGCGATATGTGCTG+CAGCACATTGGGCACGTCG ((((((((...((((((((+))))))))...))))))))	50.3
CGACGTGCTGGATGTGCTG+CAGCACATCGCGCACGTCG ((((((((..(((((((((+)))))))))..))))))))	54.8
CGACGTGCCAGATGTGCTG+CAGCACATTAAGCACGTCG ((((((((...((((((((+))))))))...))))))))	50.7
CGACGTGCTTAATGTGCTG+CAGCACATTGGGCACGTCG ((((((((..(((((((((+)))))))))..))))))))	53.5
CGACGTGCGGAATGTGCTG+CAGCACATCTGGCACGTCG ((((((((...((((((((+))))))))...))))))))	52.3
CGACGTGCCCGATGTGCTG+CAGCACATATAGCACGTCG ((((((((...((((((((+))))))))...))))))))	49
CGACGTGCCGCATGTGCTG+CAGCACATTGTGCACGTCG ((((((((...((((((((+))))))))...))))))))	45.7
CGACGTGCTCGATGTGCTG+CAGCACATGTGGCACGTCG ((((((((...((((((((+))))))))...))))))))	50.7
CGACGTGCCACATGTGCTG+CAGCACATAGCGCACGTCG ((((((((...((((((((+))))))))...))))))))	48.5
CGACGTGCATGATGTGCTG+CAGCACATTGAGCACGTCG ((((((((...((((((((+))))))))...))))))))	50.7
CGACGTGCTCCATGTGCTG+CAGCACATTCGGCACGTCG ((((((((...((((((((+))))))))...))))))))	47.6
CGACGTGCCTGATGTGCTG+CAGCACATAATGCACGTCG ((((((((.(.((((((((+)))))))).).))))))))	49.9
CGACGTGCCCTATGTGCTG+CAGCACATAGAGCACGTCG ((((((((.((((((((((+)))))))))).))))))))	55.6
CGACGTGCGCAATGTGCTG+CAGCACATGACGCACGTCG (((((((((..((((((((+))))))))..)))))))))	54.4
CGACGTGCATAATGTGCTG+CAGCACATTTTGCACGTCG (((((((((.(((((((((+))))))))).)))))))))	56.1
CGACGTGCGATATGTGCTG+CAGCACATAAGGCACGTCG ((((((((..(((((((((+)))))))))..))))))))	52
